Assay results: US10434147B2, “Treatment type 2 diabetes mellitus patients” (Sanofi-Aventis Deutschland GmbH, priority 2015, dated 2019)

Columns and labels:
[1] = tested on: Patients with Type 2 Diabetes Insufficiently Controlled with Insulin Glargine with or without Metformin; design: species or system human; settings: in vivo
Excerpt: Clinical symptoms that are considered to result from a hypoglycemic episode are, e.g., increased sweating, nervousness, asthenia/weakness, tremor, dizziness, increased appetite, palpitations, headache, sleep disorder, confusion, seizures, unconsciousness, coma.
(§1) Co-primary endpoints at 26 weeks were (1) non-inferiority (95% CI upper bound <0.4%) in HbA1c reduction with LIXI vs GLU-1 and (2) for LIXI vs GLU-3, either non-inferiority in HbA1c reduction (2a) OR superiority (one-sided α≤0.025) in body weight change (2b). FPG, PPG, IG dose, composite outcomes, AEs, and hypoglycemia were assessed.

[2] = tested on: Patients with Type 2 Diabetes Insufficiently Controlled with Insulin Glargine with or without Metformin; assay: Body weight, 26-week study; assay type: in vivo, human
Excerpt: (§2) FIG. 6—Graphical study design. ^1 Insulin glargine should be injected subcutaneously once daily at dinner or breakfast time (according to patient's/investigators' preference). […] Meal used for insulin glulisine dosing should remain the same throughout the 26-week treatment period. ^4 Injection of insulin glulisine prior to breakfast, lunch and dinner.
as §1

[3] = tested on: Patients with Type 2 Diabetes Insufficiently Controlled with Insulin Glargine with or without Metformin; assay: Treatment-emergent adverse events, 26-week study; assay type: in vivo, human
Excerpt: as §2, §1

[4] = Baseline (before IMP), mITT population
[5] = Week 26 (LOCF), mITT population
[6] = Safety population, PT ≥ 3% table

Insulin Glulisine QD: insulin glulisine once daily, added to insulin glargine ± metformin (comparator arm)
Any symptomatic hypoglycemia: Number of events [1]: 395 | Any symptomatic hypoglycemia: Number of events per 100 patient years [1]: 266.4 per 100 patient years | Any symptomatic hypoglycemia: Number of patients with events per 100 patient years [1]: 78.9 per 100 patient years | Documented Symptomatic Hypoglycemia at Week 26, % pts [1]: 37.5 (p = 0.144) % pts | Documented Symptomatic Hypoglycemia at Week 26, No. of events [1]: 384 | Documented Symptomatic Hypoglycemia at Week 26, No. of events/pt years [1]: 2.6 events/pt years | Severe Hypoglycemia, no. of pts with events [1]: 2 | Body weight, Change from baseline to Week 26 (LOCF), LS Mean (SE) ([2]; ANCOVA, mITT population): 1.03 (0.276) kg | Body weight change to Week 26, LS Mean difference (SE) of Lixisenatide vs. the labelled insulin glulisine arm ([2]; ANCOVA, mITT population, p <.0001): −1.66 (0.305) kg | Body Weight, BL mean ± SD ([2]; BL, mITT, Example 2 table): 88.4 ± 15.9 kg | Body weight, Baseline, Mean (SD) [2, 4]: 88.37 (15.88) kg | Body weight, Baseline, Median [2, 4]: 88.00 kg | Body weight, Week 26 (LOCF), Mean (SD) [2, 5]: 89.31 (16.27) kg | Body weight, Week 26 (LOCF), Median [2, 5]: 88.40 kg | Body Weight, Week 26 (LOCF) mean ± SD ([2]; Week 26 (LOCF), mITT, Example 2 table): 89.3 ± 16.3 kg | Body Weight, LS mean ± SE change from BL ([2]; Week 26, mITT, Example 2 table): 1.0 ± 0.3 kg | Body Weight, LS mean treatment difference (lixisenatide vs the labelled arm) ([2]; Week 26, mITT, p < 0.0001, Example 2 table): -1.7 kg | Body weight, Change from baseline to Week 26 (LOCF), Mean (SD) ([2]; mITT population): 0.94 (2.50) kg | Body weight, Change from baseline to Week 26 (LOCF), Median ([2]; mITT population): 0.90 kg | Patients with any TEAE leading to death ([3]; Safety population): 0 n (%) | Patients with treatment emergent SAE: Accidental overdose ([3]; Safety population): 2 (0.7%) n (%) | Patients with TEAE: Accidental overdose [3, 6]: 13 (4.3%) n (%) | Patients with TEAE: Headache [3, 6]: 8 (2.7%) n (%) | Patients with TEAE: Hypoglycaemia [3, 6]: 140 (46.5%) n (%) | Patients with TEAE: Infections and infestations (SOC) [3, 6]: 70 (23.3%) n (%) | Patients with TEAE: Influenza [3, 6]: 8 (2.7%) n (%) | Patients with TEAE: Injury, poisoning and procedural complications (SOC) [3, 6]: 20 (6.6%) n (%) | Patients with TEAE: Investigations (SOC) [3, 6]: 76 (25.2%) n (%) | Patients with TEAE: Metabolism and nutrition disorders (SOC) [3, 6]: 143 (47.5%) n (%) | Adjudicated by PSAC: Acute on chronic pancreatitis ([3]; in vivo): 0 n (%) | Adjudicated by PSAC: Acute pancreatitis ([3]; in vivo): 0 n (%) | Adjudicated by PSAC: Chronic pancreatitis ([3]; in vivo): 0 n (%) | Adjudicated by PSAC: Unknown pancreatitis ([3]; in vivo): 0 n (%) | Gastrointestinal AEs: Diarrhea ([3]; in vivo): 10 (3) n (%) | Gastrointestinal AEs: Nausea ([3]; in vivo): 5 (2) n (%) | Gastrointestinal AEs: Vomiting ([3]; in vivo): 5 (2) n (%) | Patients with TEAE on the specific adverse event form for increased calcitonin (>=20 ng/L): Any ([3]; in vivo): 0 n (%) | Patients with TEAE on the specific adverse event form for increased calcitonin (>=20 ng/L): Blood calcitonin increased ([3]; in vivo): 0 n (%) | Patients with TEAE: Any class ([3]; in vivo): 222 (73.8%) n (%) | Patients with TEAE: Blood glucose decreased ([3]; in vivo): 67 (22.3%) n (%) | Patients with TEAE: Diarrhoea ([3]; in vivo): 10 (3.3%) n (%) | Patients with TEAE: Gastrointestinal disorders (SOC) ([3]; in vivo): 26 (8.6%) n (%) | Patients with TEAE: Nasopharyngitis ([3]; in vivo): 21 (7.0%) n (%) | Patients with TEAE: Nausea ([3]; in vivo): 5 (1.7%) n (%) | Patients with TEAE: Nervous system disorders (SOC) ([3]; in vivo): 22 (7.3%) n (%) | Patients with TEAE: Upper respiratory tract infection ([3]; in vivo): 5 (1.7%) n (%) | Patients with TEAE: Vomiting ([3]; in vivo): 5 (1.7%) n (%) | Patients with any TEAE ([3]; in vivo): 222 (73.8%) n (%) | Patients with any TEAE leading to permanent treatment discontinuation ([3]; in vivo): 2 (0.7%) n (%) | Patients with any treatment emergent SAE ([3]; in vivo): 11 (3.7%) n (%) | Patients with events adjudicated as allergic reaction by ARAC: All, Any category, Any event ([3]; in vivo): 0 n (%) | Patients with events adjudicated as allergic reaction by ARAC: OTHER ALLERGIC REACTION, Rhinitis allergic ([3]; in vivo): 0 n (%) | Patients with events adjudicated as allergic reaction by ARAC: Possibly Related to IMP, Any event ([3]; in vivo): 0 n (%) | Patients with events adjudicated as allergic reaction by ARAC: URTICARIA (HIVES), Urticaria ([3]; in vivo): 0 n (%) | Patients with treatment emergent SAE: Abdominal pain ([3]; in vivo): 0 n (%) | Patients with treatment emergent SAE: Angina pectoris ([3]; in vivo): 0 n (%) | Patients with treatment emergent SAE: Angina unstable ([3]; in vivo): 1 (0.3%) n (%) | Patients with treatment emergent SAE: Ankle fracture ([3]; in vivo): 1 (0.3%) n (%) | Patients with treatment emergent SAE: Any class ([3]; in vivo): 11 (3.7%) n (%) | Patients with treatment emergent SAE: Atrial fibrillation ([3]; in vivo): 1 (0.3%) n (%) | Patients with treatment emergent SAE: Atrioventricular block complete ([3]; in vivo): 0 n (%) | Patients with treatment emergent SAE: Basal cell carcinoma ([3]; in vivo): 0 n (%) | Patients with treatment emergent SAE: Cardiac disorders (SOC) ([3]; in vivo): 3 (1.0%) n (%) | Patients with treatment emergent SAE: Cardiac failure chronic ([3]; in vivo): 0 n (%) | Patients with treatment emergent SAE: Cardiac failure congestive ([3]; in vivo): 0 n (%) | Patients with treatment emergent SAE: Cellulitis ([3]; in vivo): 1 (0.3%) n (%) | Patients with treatment emergent SAE: Cerebrovascular accident ([3]; in vivo): 0 n (%) | Patients with treatment emergent SAE: Decreased appetite ([3]; in vivo): 0 n (%) | Patients with treatment emergent SAE: Dehydration ([3]; in vivo): 1 (0.3%) n (%) | Patients with treatment emergent SAE: Diabetic bullosis ([3]; in vivo): 0 n (%) | Patients with treatment emergent SAE: Epigastric discomfort ([3]; in vivo): 0 n (%) | Patients with treatment emergent SAE: Erysipelas ([3]; in vivo): 0 n (%)
